Laboratory results published in patent US20250215420, “MULTIPLEXABLE CRISPR EDITORS UTILIZING INTRACELLULAR EVOLVED APTAMERS FOR ENDOGENOUS EFFECTOR RECRUITMENT” (The Trustees of Boston College, published 2025).

Experiments:
[1] = system: MS2 coat protein (MCP)-SoxS R93A fusion (bacteriophage MS2); experiment: ELONA; details: protein coated at 10 ug/mL; aptamer 0.25-2500 nM
[2] = system: MCP T45L-SoxS R93A T45L (bacteriophage MS2); experiment: cell_activity; details: E. coli CRISPRa; some function retained
[3] = target: T1, MS2 coat protein (MCP)-SoxS R93A fusion, wild-type MCP (bacteriophage MS2); experiment: cell_activity; CRISPRa in E. coli with dCas9, J1 promoter-GFP reporter; details: tags: fused to SoxS(R93A); MS2 hairpin in sgRNA scaffold
T1 chain: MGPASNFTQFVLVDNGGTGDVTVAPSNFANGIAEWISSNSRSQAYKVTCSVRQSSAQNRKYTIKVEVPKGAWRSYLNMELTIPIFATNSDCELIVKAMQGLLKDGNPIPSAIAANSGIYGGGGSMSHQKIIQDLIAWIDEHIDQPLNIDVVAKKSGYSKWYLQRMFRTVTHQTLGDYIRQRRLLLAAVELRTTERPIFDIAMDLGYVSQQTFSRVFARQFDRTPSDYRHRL
From the text: To test the ability of the CRISPR system to accommodate the insertion of an RNA aptamer motif into the sgRNA and allow for locus-specific effector recruitment in E. coli cells, a construct was first designed to insert a known RNA aptamer against bacteriophage MS2 coat protein (MCP) into the tetraloop region of sgRNA (FIG. 3A, SEQ ID NO. 8). Correspondingly, MCP was fused with the SoxS transcriptional activator. Three plasmids (SP, AP, and RP) were designed to introduce into the cell the sgRNA-aptamer chimera, the MCP-SoxS fusion along with dCas9 (SEQ ID NO. 10), and a synthetic reporter construct, respectively (FIG. 4). Following a design principle established by a previous study, the synthetic reporter was constructed to control the expression of enhanced green fluorescent protein (eGFP) by CRISPR co-localized with RNA polymerase through aptamer-MCP interaction (FIG. 3B). This synthetic reporter construct contained a weak promoter and multiple protospacer sequences to be targeted by sgRNA to control levels of gene activation (FIG. 5A).
The distance of the sgRNA target from the transcription start site was also tested by using this reporter. […] Low GFP levels were also observed when an off-target gRNA was used that had no binding site on the J1 synthetic promoter. […]

Molecule: MS2 aptamer
- Kd [1]: 0.0263 µM

Molecule: UUAUCACCUUGGCUGCAGGCGUUUUAGAGCUAGAAAUAGCAAGUUAAAAUAAGGCUAGUCCGUUAUCAACUUGAAAAAGUGCGCACAUGAGGAUCACCCAUGUGCUUUUUU [gRNA J1.3-MS2 aptamer scaffold]
- binding signal (fold GFP decrease vs wild-type MCP) [2]: 23

B1: gRNA J1.3-MS2 aptamer scaffold (ssRNA)
RNA: UUAUCACCUUGGCUGCAGGCGUUUUAGAGCUAGAAAUAGCAAGUUAAAAUAAGGCUAGUCCGUUAUCAACUUGAAAAAGUGCGCACAUGAGGAUCACCCAUGUGCUUUUUU
- activity [3]: 56 fold GFP increase
